Data on 2 substances can be found in article PMC5756113 (Peptides, 2017).

The conditions of data set [1]: in vivo, cited from earlier work.
The conditions of data set [2]: mouse, in vivo.
The conditions of data set [3]: mouse, in vivo. This is another data set of the same source.

For “I-PACAP38: 38-amino acid form of PACAP (Bachem) radioactively labeled with 125I by the lactoperoxidase method”, the “Rate of PACAP38 transport across the mouse BBB” value in data set [1] was 2.86 µL/g/min. Moreover, in data set [1] (mouse), the “Amount of I-PACAP38 to enter the brain” value was 0.119 %Inj/g and the Vi previously reported was 18.5 µL/g. Besides, in data set [2], the “Average rate of I-PACAP38 transport into whole brain in the No-Sham Controls” value worked out at 2.35 µL/g/min; the “Average rate of transport into the whole brain for all groups” value was determined as 2.98 µL/g/min; the “Increase in the Vi, CCI versus Sham” value is listed as 1.4 fold; the “Transport rate in cerebellum compared to the cortices and whole brain” value is given as roughly 2 fold. Further, in data set [3], the “%Inj/g in cerebellum (average)” value came to 0.37 %Inj/g; the “Amount of I-PACAP38 to enter the brain (value calculated here)” value is on record as 0.15 %Inj/g; the “I-PACAP38 %Inj/g in the ipsilateral cortex, CCI compared to Sham” value is given as “nearly a doubling”.

For the substance “Pituitary adenylate cyclase-activating polypeptide 38 [PACAP38, reference compound]”, the “Rate of PACAP38 transport across the mouse BBB” value in data set [1] was 2.86 ± 0.57 µL/g/min. For the same substance, the “Half-time disappearance of PACAP38 from the blood” value in data set [1] (mouse) was 0.82 min. The “Increase in the rate of transport at 72 hours post-CCI compared to the 2 hour time point” value in data set [2] is 2–3 fold.
